This note sets out measurements from patent US20030166536A1.

Common to all, as to experiment: cell-based or functional assay
Experiment [1] concerns the target B-domainless human factor VIII (human) (UniProt P00451).
Experiment [2] addresses HP10, hybrid human/porcine B-domainless factor VIII, porcine substitution 373-403 (human; porcine) (UniProt P00451).
Experiment [3] has as its target HP11, hybrid human/porcine B-domainless factor VIII, porcine substitution 404-508 (human; porcine) (UniProt P00451).
The target in experiment [4] is HP12, hybrid human/porcine B-domainless factor VIII, porcine substitution 489-508 (human; porcine) (UniProt P00451).
Experiment [5] has as its target HP13, hybrid human/porcine B-domainless factor VIII, porcine substitution 484-488 (human; porcine) (UniProt P00451).
In experiment [6] the target is HP4, hybrid human/porcine B-domainless factor VIII, porcine substitution 373-540 (human; porcine) (UniProt P00451).
The target of experiment [7] is HP5, hybrid human/porcine B-domainless factor VIII, porcine substitution 373-508 (human; porcine) (UniProt P00451).
The target in experiment [8] is HP6, hybrid human/porcine B-domainless factor VIII, porcine substitution 373-444 (human; porcine) (UniProt P00451).
The target in experiment [9] is HP7, hybrid human/porcine B-domainless factor VIII, porcine substitution 445-508 (human; porcine) (UniProt P00451).
The target in experiment [10] is HP8, hybrid human/porcine B-domainless factor VIII, porcine substitution 373-483 (human; porcine) (UniProt P00451).
The target of experiment [11] is HP9, hybrid human/porcine B-domainless factor VIII, porcine substitution 484-508 (human; porcine) (UniProt P00451).
For experiment [12], the target named is human B-domainless factor VIII F501 → A (human) (UniProt P00451).
For experiment [13], the target named is human B-domainless factor VIII I508 → A (human) (UniProt P00451).
The target in experiment [14] is human B-domainless factor VIII P485 → A (human) (UniProt P00451).
Experiment [15] concerns the target human B-domainless factor VIII P492 → A (human) (UniProt P00451).
The target of experiment [16] is human B-domainless factor VIII R484 → A (human) (UniProt P00451).
Experiment [17] addresses human B-domainless factor VIII R489 → A (human) (UniProt P00451).
For experiment [18], the target named is human B-domainless factor VIII R490 → A (human) (UniProt P00451).
For experiment [19], the target named is human B-domainless factor VIII S488 → A (human) (UniProt P00451).
Experiment [20] addresses human B-domainless factor VIII V495 → A (human) (UniProt P00451).
For experiment [21], the target named is human B-domainless factor VIII Y487 → A (human) (UniProt P00451).
Experiment [22] concerns the target human A1/A3-C1-C2 dimer of factor VIIIa (human) (UniProt P00451).
Experiment [23] addresses porcine A1/A3-C1-C2 dimer of factor VIIIa (porcine) (UniProt P12263).

Sequence of human B-domainless factor VIII V495 → A (human) (P00451 other isoform, or with tags, fused parts or gaps): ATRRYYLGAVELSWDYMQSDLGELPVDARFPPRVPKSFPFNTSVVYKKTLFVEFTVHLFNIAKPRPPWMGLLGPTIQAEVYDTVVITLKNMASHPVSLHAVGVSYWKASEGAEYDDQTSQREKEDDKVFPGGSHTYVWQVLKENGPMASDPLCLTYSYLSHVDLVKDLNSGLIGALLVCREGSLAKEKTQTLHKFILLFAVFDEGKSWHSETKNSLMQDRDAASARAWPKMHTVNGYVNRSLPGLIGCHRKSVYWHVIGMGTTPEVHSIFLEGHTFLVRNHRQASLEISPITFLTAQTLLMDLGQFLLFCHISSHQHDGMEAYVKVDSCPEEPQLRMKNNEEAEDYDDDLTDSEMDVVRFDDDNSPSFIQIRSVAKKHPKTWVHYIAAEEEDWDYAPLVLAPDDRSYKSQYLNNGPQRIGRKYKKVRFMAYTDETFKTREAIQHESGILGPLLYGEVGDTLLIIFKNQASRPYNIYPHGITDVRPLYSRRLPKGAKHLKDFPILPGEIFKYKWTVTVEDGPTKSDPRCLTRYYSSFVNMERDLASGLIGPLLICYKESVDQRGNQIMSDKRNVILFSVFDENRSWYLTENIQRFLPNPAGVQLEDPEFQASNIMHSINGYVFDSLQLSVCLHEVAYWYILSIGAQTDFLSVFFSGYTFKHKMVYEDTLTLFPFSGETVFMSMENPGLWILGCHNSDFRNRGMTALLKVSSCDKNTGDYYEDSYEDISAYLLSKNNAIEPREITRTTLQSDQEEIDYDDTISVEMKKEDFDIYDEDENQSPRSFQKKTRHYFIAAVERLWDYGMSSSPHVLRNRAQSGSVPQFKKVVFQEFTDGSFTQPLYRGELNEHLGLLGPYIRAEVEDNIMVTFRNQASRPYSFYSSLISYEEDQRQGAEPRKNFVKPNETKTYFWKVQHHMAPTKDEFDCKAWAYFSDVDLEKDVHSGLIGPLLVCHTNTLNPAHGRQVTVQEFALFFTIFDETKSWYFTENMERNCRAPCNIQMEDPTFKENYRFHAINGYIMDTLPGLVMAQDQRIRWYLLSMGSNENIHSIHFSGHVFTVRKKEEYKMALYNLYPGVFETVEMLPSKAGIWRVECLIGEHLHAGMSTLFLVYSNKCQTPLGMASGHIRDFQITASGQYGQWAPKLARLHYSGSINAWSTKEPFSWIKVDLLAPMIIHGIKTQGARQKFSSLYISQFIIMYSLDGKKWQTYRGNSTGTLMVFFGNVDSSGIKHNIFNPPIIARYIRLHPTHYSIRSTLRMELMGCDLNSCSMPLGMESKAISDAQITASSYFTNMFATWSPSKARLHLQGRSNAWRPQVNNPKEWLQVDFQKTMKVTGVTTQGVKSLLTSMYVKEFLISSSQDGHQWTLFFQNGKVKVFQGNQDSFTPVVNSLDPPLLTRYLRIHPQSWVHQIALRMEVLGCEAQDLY
Sequence of human B-domainless factor VIII F501 → A (human) (P00451 other isoform, or with tags, fused parts or gaps): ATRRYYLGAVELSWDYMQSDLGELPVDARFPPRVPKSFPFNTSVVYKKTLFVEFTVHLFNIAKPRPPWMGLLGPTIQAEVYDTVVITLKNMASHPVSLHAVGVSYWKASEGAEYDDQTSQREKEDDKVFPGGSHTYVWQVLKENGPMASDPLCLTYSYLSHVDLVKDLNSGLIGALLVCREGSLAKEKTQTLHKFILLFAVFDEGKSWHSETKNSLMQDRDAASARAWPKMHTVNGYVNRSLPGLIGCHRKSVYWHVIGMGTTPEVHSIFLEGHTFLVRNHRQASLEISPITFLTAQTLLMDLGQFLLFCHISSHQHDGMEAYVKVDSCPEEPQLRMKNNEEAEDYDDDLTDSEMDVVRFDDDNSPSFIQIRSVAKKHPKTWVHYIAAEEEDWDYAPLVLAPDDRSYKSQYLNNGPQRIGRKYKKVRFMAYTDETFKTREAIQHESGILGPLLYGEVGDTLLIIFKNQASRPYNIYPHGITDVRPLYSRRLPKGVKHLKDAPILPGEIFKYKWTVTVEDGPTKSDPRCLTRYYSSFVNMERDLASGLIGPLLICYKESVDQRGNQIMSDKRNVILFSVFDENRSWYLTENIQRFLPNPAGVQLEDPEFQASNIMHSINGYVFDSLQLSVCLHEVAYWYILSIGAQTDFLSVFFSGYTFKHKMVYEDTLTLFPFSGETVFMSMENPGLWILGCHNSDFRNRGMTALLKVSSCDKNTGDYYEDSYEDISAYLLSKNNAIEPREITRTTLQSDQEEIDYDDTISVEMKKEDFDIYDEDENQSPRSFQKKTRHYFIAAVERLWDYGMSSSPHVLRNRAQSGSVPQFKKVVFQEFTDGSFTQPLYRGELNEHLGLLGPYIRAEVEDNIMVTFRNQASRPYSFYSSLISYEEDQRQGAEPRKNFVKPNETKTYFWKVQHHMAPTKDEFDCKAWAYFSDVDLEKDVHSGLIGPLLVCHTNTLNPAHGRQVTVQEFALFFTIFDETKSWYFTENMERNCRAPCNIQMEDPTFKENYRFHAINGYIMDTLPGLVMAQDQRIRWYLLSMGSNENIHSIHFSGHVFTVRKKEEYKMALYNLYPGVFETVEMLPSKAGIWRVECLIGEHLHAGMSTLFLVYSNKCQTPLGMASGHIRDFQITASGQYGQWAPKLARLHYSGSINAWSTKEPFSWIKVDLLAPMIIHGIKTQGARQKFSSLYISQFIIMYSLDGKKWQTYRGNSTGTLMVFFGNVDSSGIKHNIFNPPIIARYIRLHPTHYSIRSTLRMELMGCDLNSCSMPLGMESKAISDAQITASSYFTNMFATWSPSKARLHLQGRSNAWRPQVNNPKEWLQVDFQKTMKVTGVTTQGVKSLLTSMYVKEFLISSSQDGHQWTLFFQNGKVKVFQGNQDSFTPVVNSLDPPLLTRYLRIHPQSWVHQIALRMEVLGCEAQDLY
Sequence of human B-domainless factor VIII Y487 → A (human) (P00451 other isoform, or with tags, fused parts or gaps): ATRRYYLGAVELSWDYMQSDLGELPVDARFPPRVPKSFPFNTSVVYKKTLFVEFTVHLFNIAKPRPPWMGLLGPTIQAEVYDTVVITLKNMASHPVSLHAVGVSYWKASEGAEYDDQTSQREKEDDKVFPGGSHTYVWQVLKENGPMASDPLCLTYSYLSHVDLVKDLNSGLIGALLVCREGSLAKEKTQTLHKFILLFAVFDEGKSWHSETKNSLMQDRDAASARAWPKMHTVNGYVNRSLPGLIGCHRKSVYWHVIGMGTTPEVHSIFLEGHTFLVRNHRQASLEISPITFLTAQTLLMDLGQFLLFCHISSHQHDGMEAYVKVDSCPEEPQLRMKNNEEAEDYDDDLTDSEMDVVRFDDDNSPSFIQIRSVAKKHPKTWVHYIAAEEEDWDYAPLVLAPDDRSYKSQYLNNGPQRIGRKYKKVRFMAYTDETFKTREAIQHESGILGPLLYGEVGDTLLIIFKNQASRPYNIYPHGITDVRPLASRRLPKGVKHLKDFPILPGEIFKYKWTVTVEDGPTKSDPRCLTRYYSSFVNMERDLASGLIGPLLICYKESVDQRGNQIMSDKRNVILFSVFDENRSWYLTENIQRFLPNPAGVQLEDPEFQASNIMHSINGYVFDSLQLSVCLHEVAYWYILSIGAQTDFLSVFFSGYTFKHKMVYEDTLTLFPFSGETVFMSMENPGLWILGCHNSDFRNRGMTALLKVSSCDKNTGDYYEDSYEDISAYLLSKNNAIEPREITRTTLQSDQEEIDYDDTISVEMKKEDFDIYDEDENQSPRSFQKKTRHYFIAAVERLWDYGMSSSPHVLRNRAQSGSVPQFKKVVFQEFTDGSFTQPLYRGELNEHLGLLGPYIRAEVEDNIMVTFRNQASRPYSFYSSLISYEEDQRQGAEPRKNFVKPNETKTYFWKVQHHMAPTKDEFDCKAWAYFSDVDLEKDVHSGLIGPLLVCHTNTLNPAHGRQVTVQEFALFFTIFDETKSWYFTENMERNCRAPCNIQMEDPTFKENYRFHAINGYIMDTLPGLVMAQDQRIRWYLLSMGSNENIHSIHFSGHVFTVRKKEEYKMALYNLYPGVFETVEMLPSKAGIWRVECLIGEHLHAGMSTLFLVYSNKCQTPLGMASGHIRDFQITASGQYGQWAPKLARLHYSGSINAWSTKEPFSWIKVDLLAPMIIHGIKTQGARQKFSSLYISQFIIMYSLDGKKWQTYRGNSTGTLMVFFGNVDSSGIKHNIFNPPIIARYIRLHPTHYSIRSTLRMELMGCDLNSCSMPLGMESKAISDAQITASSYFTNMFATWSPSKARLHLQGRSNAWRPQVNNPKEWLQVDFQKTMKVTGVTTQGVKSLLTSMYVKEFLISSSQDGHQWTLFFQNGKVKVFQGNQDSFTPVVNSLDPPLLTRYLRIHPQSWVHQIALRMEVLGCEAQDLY

For the substance “mAb413, murine monoclonal inhibitory antibody specific for the A2 domain of factor VIII”, the Inhibition mAb413 (BU/mg IgG), Bethesda assay is 1470 BU/mg IgG in experiment [1]; 1170 BU/mg IgG in experiment [2]; less than 0.7 BU/mg IgG in experiment [3]; less than 0.7 BU/mg IgG in experiment [4]; less than 0.7 BU/mg IgG in experiment [5]; less than 0.7 BU/mg IgG in experiment [6]. The Inhibition mAb413 (BU/mg IgG), Bethesda assay in experiment [7] was less than 0.7 BU/mg IgG; in [8] it was 1450 BU/mg IgG; in [9] it was less than 0.7 BU/mg IgG; in experiment [10], 1250 BU/mg IgG; in experiment [11] it was less than 0.7 BU/mg IgG. The MAb413 titer (BU/mg), Bethesda assay came to 9400 BU/mg in [1]; 11900 BU/mg in experiment [12]; 5620 BU/mg in experiment [13]; 4000 BU/mg in experiment [14]; 630 BU/mg in [15]; 160 BU/mg in experiment [16]. The MAb413 titer (BU/mg), Bethesda assay was 1.6 BU/mg in experiment [17], 3500 BU/mg in experiment [19], 10700 BU/mg in [20] and 50 BU/mg in experiment [21]. Further, the % Reactivity relative to wild-type in [12] was 126%; in experiment [13], 60%; in [14] it was 42%; in experiment [15], 6.7%; in experiment [16] it was 1.7%; in experiment [17], 0.015%. In addition, the % Reactivity relative to wild-type is less than 0.5% in experiment [18], 37% in experiment [19], 113% in [20] and 0.53% in experiment [21]. Also, in experiment [18], the reactivity to inhibitor relative to human factor VIII was found to be 0.2%.

In turn, “porcine factor VIIIa A2 domain, isolated from porcine blood (from UniProt P12263 392-759)” had a Specific Activity (U/mg) of reconstituted hybrid fVIIIa, two-stage clotting assay at 1 hour in [22] of 140000 U/mg. The substance also registered a Specific Activity (U/mg) of reconstituted fVIIIa, two-stage clotting assay at 1 hour in [23] of 70000 U/mg.
